Reference: patent publication US20240294634A1 (INNATE PHARMA, published 2024)

Key:
[1] = target: T1, ILT-2_6×His recombinant protein (human, UniProt Q8NHL6 24-458); test: SPR, mAb captured on Protein-A, soluble ILT2 analyte
T1 construct: also called recombinant 6×HIS tagged ILT2; recombinant human ILT2 proteins
Method: Measurements were performed on a Biacore T200 apparatus (Biacore GE Healthcare) at 25° C. In all Biacore experiments HBS-EP+ (Biacore GE Healthcare) and NaOH 10 mM served as running buffer and regeneration buffer respectively. Sensorgrams were analyzed with Biacore T100 Evaluation software. Protein-A was purchased from (GE Healthcare). Human ILT2 recombinant proteins were cloned, produced and purified at Innate Pharma. Protein-A proteins were immobilized covalently to carboxyl groups in the dextran layer on a Sensor Chip CM5. The chip surface was activated with EDC/NHS (N-ethyl-N′-(3-dimethylaminopropyl) carbodiimidehydrochloride and N-hydroxysuccinimide (Biacore GE Healthcare)). Protein-A was diluted to 10 μg/ml in coupling buffer (10 mM acetate, pH 5.6) and injected until the appropriate immobilization level was reached (i.e. 2000 RU). Deactivation of the remaining activated groups was performed using 100 mM ethanolamine pH 8 (Biacore GE Healthcare). […] For blank subtraction, cycles were performed again replacing ILT2 proteins with running buffer. The monovalent affinity analysis was conducted following a regular Capture-Kinetic protocol as recommended by the manufacturer (Biacore GE Healthcare kinetic wizard). Seven serial dilutions of human ILT2 proteins, ranging from 6.25 to 400 nM were sequentially injected over the captured antibodies and allowed to dissociate for 10 min before regeneration. The entire sensorgram sets were fitted using the 1:1 kinetic binding model.

[2] = target: T2, Human ILT-2 (complete form) expressed at the cell surface (human, UniProt Q8NHL6 24-650); test: flow cytometry titration on cells transfected with wild-type ILT2 (WT)
T2 construct: also called LILRB1; CHO-ILT2
T2 sequence (Q8NHL6 24-650): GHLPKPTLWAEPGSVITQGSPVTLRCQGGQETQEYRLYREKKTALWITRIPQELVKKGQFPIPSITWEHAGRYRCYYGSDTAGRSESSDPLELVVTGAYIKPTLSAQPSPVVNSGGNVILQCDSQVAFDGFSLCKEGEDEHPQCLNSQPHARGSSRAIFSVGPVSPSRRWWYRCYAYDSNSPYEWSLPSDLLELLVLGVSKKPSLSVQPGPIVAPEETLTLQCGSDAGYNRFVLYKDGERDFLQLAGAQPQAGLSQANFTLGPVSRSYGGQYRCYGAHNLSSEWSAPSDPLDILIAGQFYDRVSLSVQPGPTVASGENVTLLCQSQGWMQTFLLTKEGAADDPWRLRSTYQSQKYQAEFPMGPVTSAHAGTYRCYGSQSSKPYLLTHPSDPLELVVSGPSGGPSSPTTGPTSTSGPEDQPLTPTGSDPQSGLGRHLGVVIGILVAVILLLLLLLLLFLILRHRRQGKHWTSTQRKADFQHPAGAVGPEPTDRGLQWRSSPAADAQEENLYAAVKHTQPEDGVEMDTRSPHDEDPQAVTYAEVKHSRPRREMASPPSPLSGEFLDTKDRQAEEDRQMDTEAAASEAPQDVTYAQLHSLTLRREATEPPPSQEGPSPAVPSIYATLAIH

ILT2 mutant 2 = target: T3, ILT2 mutant 2 (human, UniProt Q8NHL6 24-650); test: flow cytometry, HEK293T cells with ILT2 mutant
T3 construct: Transfected in HEK-293T cells; also called M2
T3 sequence (Q8NHL6 other isoform, or with tags, fused parts or gaps mutant): as the sequence (Q8NHL6 24-650) above, with E34A, R36A, Y76I, A82S, R84L counted along it

ILT2 mutant 3 = target: T4, ILT2 mutant 3 (human, UniProt Q8NHL6 24-650); test: flow cytometry, HEK293T cells with ILT2 mutant
T4 construct: Transfected in HEK-293T cells
T4 sequence (Q8NHL6 other isoform, or with tags, fused parts or gaps mutant): as the sequence (Q8NHL6 24-650) above, with Y99A, I100S, V126S, A127S, D129A, N180R, S181A, E184G counted along it

ILT2 mutant 3b = target: T5, ILT2 mutant 3b (human, UniProt Q8NHL6 24-650); test: flow cytometry, HEK293T cells with ILT2 mutant
T5 construct: Transfected in HEK-293T cells
T5 sequence (Q8NHL6 other isoform, or with tags, fused parts or gaps mutant): as the sequence (Q8NHL6 24-650) above, with Q18A, W67A, Y99A, I100S, V126S, S181A, E184G counted along it

ILT2 mutant 4 = target: T6, ILT2 mutant 4 (human, UniProt Q8NHL6 24-650); test: flow cytometry, HEK293T cells with ILT2 mutant
T6 construct: Transfected in HEK-293T cells
T6 sequence (Q8NHL6 other isoform, or with tags, fused parts or gaps mutant): as the sequence (Q8NHL6 24-650) above, with S132A, L145S, N146A, Q148H, P149S counted along it

ILT2 mutant 5 = target: T7, ILT2 mutant 5 (human, UniProt Q8NHL6 24-650); test: flow cytometry, HEK293T cells with ILT2 mutant
T7 construct: Transfected in HEK-293T cells
T7 sequence (Q8NHL6 other isoform, or with tags, fused parts or gaps mutant): as the sequence (Q8NHL6 24-650) above, with A127S, D129A, Q148H, R152A, N180R counted along it

ILT2 mutant 6 = target: T8, ILT2 mutant 6 (human, UniProt Q8NHL6 24-650); test: flow cytometry, HEK293T cells with ILT2 mutant
T8 construct: Transfected in HEK-293T cells
T8 sequence (Q8NHL6 other isoform, or with tags, fused parts or gaps mutant): as the sequence (Q8NHL6 24-650) above, with Q107L, P108A, I119A, R156A counted along it

ILT2 mutant 7 = target: T9, ILT2 mutant 7 (human, UniProt Q8NHL6 24-650); test: flow cytometry, HEK293T cells with ILT2 mutant
T9 construct: Transfected in HEK-293T cells
T9 sequence (Q8NHL6 other isoform, or with tags, fused parts or gaps mutant): as the sequence (Q8NHL6 24-650) above, with P166A, R169A, W171S, L191A, E193G, L195S, L197P counted along it

ILT2 mutant 8 = target: T10, ILT2 mutant 8 (human, UniProt Q8NHL6 24-650); test: flow cytometry, HEK293T cells with ILT2 mutant
T10 construct: Transfected in HEK-293T cells
T10 sequence (Q8NHL6 other isoform, or with tags, fused parts or gaps mutant): as the sequence (Q8NHL6 24-650) above, with V111S, N113A, L195S, L197P counted along it

ILT2 mutant 4-1 = target: T11, ILT2 mutant 4-1 (human, UniProt Q8NHL6 24-650); test: flow cytometry, HEK293T cells with ILT2 mutant
T11 construct: Transfected in HEK-293T cells
T11 sequence (Q8NHL6 other isoform, or with tags, fused parts or gaps mutant): as the sequence (Q8NHL6 24-650) above, with F299I, Y300R, D301A, W328G, Q378A, K381N counted along it

ILT2 mutant 4-1b = target: T12, ILT2 mutant 4-1b (human, UniProt Q8NHL6 24-650); test: flow cytometry, HEK293T cells with ILT2 mutant
T12 construct: Transfected in HEK-293T cells
T12 sequence (Q8NHL6 other isoform, or with tags, fused parts or gaps mutant): as the sequence (Q8NHL6 24-650) above, with Y300R, D301A, R302A, S304F, H387A, D390A counted along it

ILT2 mutant 4-2 = target: T13, ILT2 mutant 4-2 (human, UniProt Q8NHL6 24-650); test: flow cytometry, HEK293T cells with ILT2 mutant
T13 construct: Transfected in HEK-293T cells
T13 sequence (Q8NHL6 other isoform, or with tags, fused parts or gaps mutant): as the sequence (Q8NHL6 24-650) above, with W328G, Q330H, R347A, T349A, Y350S, Y355A counted along it

ILT2 mutant 4-3 = target: T14, ILT2 mutant 4-3 (human, UniProt Q8NHL6 24-650); test: flow cytometry, HEK293T cells with ILT2 mutant
T14 construct: Transfected in HEK-293T cells
T14 sequence (Q8NHL6 other isoform, or with tags, fused parts or gaps mutant): as the sequence (Q8NHL6 24-650) above, with Q324A, Q326S, S352A, Q353H, K354A counted along it

ILT2 mutant 4-4 = target: T15, ILT2 mutant 4-4 (human, UniProt Q8NHL6 24-650); test: flow cytometry, HEK293T cells with ILT2 mutant
T15 construct: Transfected in HEK-293T cells
T15 sequence (Q8NHL6 other isoform, or with tags, fused parts or gaps mutant): as the sequence (Q8NHL6 24-650) above, with Q308A, P309G, N318A, T320A, E358S, G362S counted along it

ILT2 mutant 4-5 = target: T16, ILT2 mutant 4-5 (human, UniProt Q8NHL6 24-650); test: flow cytometry, HEK293T cells with ILT2 mutant
T16 construct: Transfected in HEK-293T cells
T16 sequence (Q8NHL6 other isoform, or with tags, fused parts or gaps mutant): as the sequence (Q8NHL6 24-650) above, with D341A, D342S, W344L, R345A, R347A counted along it

T1 sequence (Q8NHL6 other isoform, or with tags, fused parts or gaps limits assumed): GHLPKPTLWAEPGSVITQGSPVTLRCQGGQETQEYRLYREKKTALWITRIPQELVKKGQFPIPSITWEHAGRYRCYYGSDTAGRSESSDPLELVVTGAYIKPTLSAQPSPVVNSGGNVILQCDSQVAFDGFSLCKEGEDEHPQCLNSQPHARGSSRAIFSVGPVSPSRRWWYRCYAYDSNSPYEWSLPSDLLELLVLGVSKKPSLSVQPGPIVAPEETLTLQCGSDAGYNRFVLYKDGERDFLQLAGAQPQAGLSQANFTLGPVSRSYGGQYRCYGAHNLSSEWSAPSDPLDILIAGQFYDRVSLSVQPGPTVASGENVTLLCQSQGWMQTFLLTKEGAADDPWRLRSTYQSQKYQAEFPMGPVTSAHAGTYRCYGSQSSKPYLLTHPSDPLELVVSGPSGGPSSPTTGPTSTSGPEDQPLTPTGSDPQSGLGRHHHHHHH

B1: 27H5 (antibody, human IgG1, V domains shown)
VH: QVQLKESGPGLVAPSQSLSITCTVSGFSLTSYGVSWVRQPPGKGLEWLGVIWGDGNTNYHSALISRLSISKDNSKSQVFLKLNSLQTDDTATYYCARTNWDGWFAYWGQGTLVTVSA
VL: DIVMTQSHKFMSTSVGDRVSITCKASQDVGTAVAWYQQKPGQSPKLLIYWASTRHTGVPDRFTGSGSGTDFTLTISNVQSEDLADYFCQQYRSYPLGTFGGGTKLEIK
kon [1]: 660000 M⁻¹ s⁻¹

B2: 3H5 (antibody, human IgG1, V domains shown)
VH: QVQLKESGPGLVAPSQSLSITCTVSGFSLTSYGVSWVRQPPGKGLEWLGVIWGDGSTNYHSALISRLSISKDNSKSQVFLKLNSLQTDDTATYYCAKPRWDDYAMDYWGQGTSVTVSS
VL: DIQMTQTTSSLSASLGDRVTISCRASQDISNYLNWYQQKPDGTVKLLIYYTSRLHSGVPSRFSGSGSGTDYSLTISNLEQEDIATYFCQQGNTLWTFGGGTKLEIK
kon [1]: 280000 M⁻¹ s⁻¹ | EC50 (read off the curve) [2]: ~1 µg/mL

B3: 18E1 (antibody, human IgG1, V domains shown)
VH: QVQLQQSGAELVKPGASVRLSCKASGYTFTAHTIHWVKQRSGQGLEWIGWLYPGSGSIKYNEKFKDKATLTADKSSSTVYMELSRLTSEDSAVYFCARHTNWDFDYWGQGTTLTVSS
VL: NIVLTQSPASLAVSLGQRATISCKASQSVDYGGASYMNWYQQKPGQPPKLLIYAASNLESGIPARFSGSGSGTDLTLNIHPVEEEDAAMYYCQQSNEEPWTFGGGTKLEIK
kon [1]: 750000 M⁻¹ s⁻¹

B4: 2H2A (antibody, V domains shown)
VH: EVKLEESGPELVKPGASVKLSCKASGYTFTNYYMQWVKQRPGQGLEWIGWIFPGSGESSYNEKFKGKATLSADTSSTTAYMQLSSLTSEDSAVYFCARTWNYDARWGYWGQGTTLTVSS
VL: DILMTQSPASLAVSLGQRATISCIPSESIDSYGISFMHWYQQKPGQPPKLLIYRASNLESGIPARFSGSGSRTDFTLTINPVEADDVATYYCQQSNEDPFTFGSGTKLELK
binding result (ILT2 mutant 2): no binding

B5: 12D12 (antibody, human IgG1, V domains shown)
VH: QVQLQQPGAELVKPGASVRMSCKASGYTFTSYWVHWVKQRPGQGLEWIGVIDPSDSYTSYNQNFKGKATLTVDTSSKTAYIHLSSLTSEDSAVYFCARGERYDGDYFAMDYWGQGTSVTVSS
VL: DIVMTQSPASLSVSVGETVTITCRASENIYSNLAWYQQKQGKSPQLLVYAATNLADGVPSRFSGSRSGTQYSLKINSLQSEDFGTYYCQHFWNTPRTFGGGTKLEIK
notes: also called 12012
binding result (ILT2 mutant 3): binds | binding result (ILT2 mutant 3b): binds | binding result (ILT2 mutant 4): binds | binding result (ILT2 mutant 5): binds | binding result (ILT2 mutant 6): binds | binding result (ILT2 mutant 7): binds | binding result (ILT2 mutant 8): binds | binding result (ILT2 mutant 4-1): binds | binding result (ILT2 mutant 4-1b): binds | binding result (ILT2 mutant 4-2): binds | binding result (ILT2 mutant 4-3): binds | binding result (ILT2 mutant 4-4): binds | binding result (ILT2 mutant 4-5): binds
